{"source": "patent US20240252667A1", "about": "(ARMAGEN, published 2024)", "key": {"[1]": {"target": "T1, human insulin receptor extracellular domain (HIR ECD) (human, UniProt P06213 28-956, limits assumed)", "T1 construct": "extracellular domain; Plated on 96-well dishes in the ELISA", "experiment": "ELISA, HIR ECD plated (HIR receptor assay)"}, "[2]": {"target": "T1, human insulin receptor extracellular …", "experiment": "ELISA, HIR ECD plated; normalised with MW 150 kDa", "method": "(§1) The COS-derived HIR Ab-HEXA fusion protein (also designated HIRMAb-HEXA), following purification with protein A affinity chromatography, was assessed for purity by reducing sodium dodecysulfate polyacrylamide gel electrophoresis (SDS-PAGE) as shown in FIG. 10. Only the HC and LC proteins are detected for either the HIRMAb alone or the HIRMAb-HEXA fusion protein. For the HIRMAb alone the higher molecular weight (MW) band is the HC and the lower MW band is the LC. For the HIRMAb-HEXA fusion protein, the higher MW band is the […]. The identity of the fusion protein was verified by Western blotting using primary antibodies to either human IgG (FIG. 11, left panel) or human HEXA (FIG. 11, right panel). The molecular weight (MW) of the HIRMAb-HEXA heavy and light chains are estimated by linear regression based on the migration of the MW standards. […] The affinity of the fusion protein for the HIR extracellular domain (ECD) was determined with an ELISA. […] The HIR ECD was plated on Nunc-Maxisorb 96 well dishes and the binding of the HIR Ab, or the HIR Ab-HEXA fusion protein, to the HIR ECD was detected with a secondary antibody, followed by binding with an alkaline phosphatase detector reagent. […]"}, "[3]": {"target": "T1, human insulin receptor extracellular …", "experiment": "ELISA, recombinant HIR ECD plated; normalised with MW 150 kDa", "method": "(§2) The potency of the CHO-derived fusion protein was assessed with the HIR ECD binding ELISA. The affinity of the fusion protein for the HIR extracellular domain (ECD) was determined with an ELISA. Recombinant HIR ECD was plated on Nunc-Maxisorb 96 well dishes and the binding of the HIR Ab, or the HIR Ab-PPT1 fusion protein, to the HIR ECD was detected with a secondary antibody, followed by binding with an alkaline phosphatase detector reagent. […] The MW of the HIR Ab is 150 kDa, and the MW of the HIR Ab-fusion protein is 246 kDa."}, "[4]": {"target": "T1, human insulin receptor extracellular …", "experiment": "ELISA, HIR ECD plated, biotinylated goat anti-human IgG detection"}, "[5]": {"target": "T1, human insulin receptor extracellular …", "experiment": "ELISA, HIR ECD plated, secondary antibody and alkaline phosphatase detection", "method": "as §1"}, "[6]": {"target": "T1, human insulin receptor extracellular …", "experiment": "ELISA, recombinant HIR ECD plated, secondary antibody and alkaline phosphatase detection", "method": "as §2"}, "[7]": {"target": "T1, human insulin receptor extracellular …", "experiment": "ELISA, recombinant HIR ECD plated, secondary antibody and alkaline phosphatase detection; CHO-derived HIR Ab", "method": "as §2, with “The” for “The potency of the CHO-derived fusion protein was assessed with the HIR ECD binding ELISA. The”, “Ab-ASM” for “Ab-PPT1”, “320” for “246”"}, "[8]": {"target": "T1, human insulin receptor extracellular …", "experiment": "ELISA, HIR ECD plated; CHO-derived protein", "method": "The estimated MW of the hetero-tetrameric HIRMAb-HEXA fusion protein shown in FIG. 2 is 318 kDa, based on migration in the SDS-PAGE of the Western blot. The affinity of the fusion protein for the HIR extracellular domain (ECD) was determined with an ELISA. CHO cells permanently transfected with the HIR ECD were grown in serum free media (SFM), and the HIR ECD was purified with a wheat germ agglutinin affinity column, as previously described in Coloma et al. (2000) Pharm Res, 17:266-274. The HIR ECD was plated on Nunc-Maxisorb 96 well dishes and the binding of the HIR Ab, or the HIR Ab-HEXA fusion protein, to the HIR ECD was detected with a secondary antibody, followed by binding with an alkaline phosphatase detector reagent. […] The MW of the HIR Ab is 150 kDa, and the MW of the HIR Ab-fusion protein is 318 kDa.\nThe CHO line producing the HIR Ab-HEXA fusion protein was generated from CHO cells following 2 rounds of DC as described above. The accession cell line was propagated in a 2L shake flask in SFM on an orbital shaker and the CHO-derived fusion protein was purified by protein A affinity chromatography. […] The potency of the CHO-derived fusion protein as assessed with the HIR ECD binding ELISA, as described above."}, "[9]": {"target": "T1, human insulin receptor extracellular …", "experiment": "ELISA, HIR ECD plated; COS-derived protein; normalised with MW 318 kDa", "method": "as §1"}, "[10]": {"target": "T1, human insulin receptor extracellular …", "experiment": "ELISA, HIR ECD plated, secondary antibody and alkaline phosphatase detection; COS-derived protein", "method": "as §1"}, "[11]": {"target": "T1, human insulin receptor extracellular …", "experiment": "ELISA, recombinant HIR ECD plated; CHO-derived protein; normalised with MW 320 kDa", "method": "as §2, with “The” for “The potency of the CHO-derived fusion protein was assessed with the HIR ECD binding ELISA. The”, “Ab-ASM” for “Ab-PPT1”, “320” for “246”"}, "[12]": {"target": "T1, human insulin receptor extracellular …", "experiment": "ELISA, recombinant HIR ECD plated, secondary antibody and alkaline phosphatase detection; CHO-derived protein", "method": "as §2, with “The” for “The potency of the CHO-derived fusion protein was assessed with the HIR ECD binding ELISA. The”, “Ab-ASM” for “Ab-PPT1”, “320” for “246”\nas §2"}, "[13]": {"target": "T1, human insulin receptor extracellular …", "experiment": "ELISA, recombinant HIR ECD plated; CHO-derived protein; normalised with MW 246 kDa", "method": "as §2"}}, "note": "Several values for one entry are separate records, joined by “and”; a condition that tells them apart may be missing. Identical values can stand only once."}
{"binder": "chimeric HIR Ab (antibody to the human insulin receptor) (antibody, human IgG1, kappa, also called HIRMAb; chimeric HIRMAb) heavy: not shown light: DIQMTQSPSSLSASLGERVSLTCRASQDIGGNLYWLQQGPDGTIKRLIYATSSLDSGVPKRFSGSRSGSDYSLTISSLESEDFVDYYCLQYSSSPWTFGGGTKMEIKRTVAAPSVFIFPPSDEQLKSGTASVVCLLNNFYPREAKVQWKVDNALQSGNSQESVTEQDSKDSTYSLSSTLTLSKADYEKHKVYACEVTHQGLSSPVTKSFNRGEC", "values": [{"measurement": "EC50", "setting": "[1]", "result": 250, "unit": "pM"}, {"measurement": "EC50", "setting": "[2]", "result": 230, "unit": "pM"}, {"measurement": "EC50", "setting": "[3]", "result": "320 pM and 260 pM"}, {"measurement": "EC50", "setting": "[4]", "result": 770, "unit": "pM"}, {"measurement": "EC50", "setting": "[5]", "result": 0.034, "unit": "µg/mL"}, {"measurement": "EC50", "setting": "[6]", "result": 0.039, "unit": "µg/mL"}, {"measurement": "EC50", "setting": "[7]", "result": 0.047, "unit": "µg/mL"}]}
{"binder": "HIR Ab-HEXA fusion protein (antibody, human IgG1, human IgG3, kappa, also called HIRMAb-HEXA; HIR Ab LC-HEXA + HIR Ab HC) heavy: not shown light: DIQMTQSPSSLSASLGERVSLTCRASQDIGGNLYWLQQGPDGTIKRLIYATSSLDSGVPKRFSGSRSGSDYSLTISSLESEDFVDYYCLQYSSSPWTFGGGTKMEIKRTVAAPSVFIFPPSDEQLKSGTASVVCLLNNFYPREAKVQWKVDNALQSGNSQESVTEQDSKDSTYSLSSTLTLSKADYEKHKVYACEVTHQGLSSPVTKSFNRGECSSSELKTPLGDTTHTSPRSPAPEFLGGPSSSLWPWPQNFQTSDQRYVLYPNNFQFQYDVSSAAQPGCSVLDEAFQRYRDLLFGSGSWPRPYLTGKRHTLEKNVLVVSVVTPGCNQLPTLESVENYTLTINDDQCLLLSETVWGALRGLETFSQLVWKSAEGTFFINKTEIEDFPRFPHRGLLLDTSRHYLPLSSILDTLDVMAYNKLNVFHWHLVDDPSFPYESFTFPELMRKGSYNPVTHIYTAQDVKEVIEYARLRGIRVLAEFDTPGHTLSWGPGIPGLLTPCYSGSEPSGTFGPVNPSLNNTYEFMSTFFLEVSSVFPDFYLHLGGDEVDFTCWKSNPEIQDFMRKKGFGEDFKQLESFYIQTLLDIVSSYGKGYVVWQEVFDNKVKIQPDTIIQVWREDIPVNYMKELELVTKAGFRALLSAPWYLNRISYGPDWKDFYIVEPLAFEGTPEQKALVIGGEACMWGEYVDNTNLVPRLWPRAGAVAERLWSNKLTSDLTFAYERLSHFRCELLRRGVQAQPLNVGFCEQEFEQT", "values": [{"measurement": "EC50", "setting": "[8]", "result": 0.122, "unit": "µg/mL"}, {"measurement": "EC50", "setting": "[9]", "result": 350, "unit": "pM"}, {"measurement": "EC50", "setting": "[10]", "result": 0.112, "unit": "µg/mL"}]}
{"binder": "HIR Ab-ASM fusion protein (antibody, human IgG1, human IgG3, kappa, Hetero-tetramer, MW 320 kDa; The ELISA used CHO-derived protein; also called HIRMAb-ASM; HIR Ab LC-ASM + HIR Ab HC) heavy: not shown light: DIQMTQSPSSLSASLGERVSLTCRASQDIGGNLYWLQQGPDGTIKRLIYATSSLDSGVPKRFSGSRSGSDYSLTISSLESEDFVDYYCLQYSSSPWTFGGGTKMEIKRTVAAPSVFIFPPSDEQLKSGTASVVCLLNNFYPREAKVQWKVDNALQSGNSQESVTEQDSKDSTYSLSSTLTLSKADYEKHKVYACEVTHQGLSSPVTKSFNRGECSSSELKTPLGDTTHTSPRSPAPEFLGGPSSSHPLSPQGHPARLHRIVPRLRDVFGWGNLTCPICKGLFTAINLGLKKEPNVARVGSVAIKLCNLLKIAPPAVCQSIVHLFEDDMVEVWRRSVLSPSEACGLLLGSTCGHWDIFSSWNISLPTVPKPPPKPPSPPAPGAPVSRILFLTDLHWDHDYLEGTDPDCADPLCCRRGSGLPPASRPGAGYWGEYSKCDLPLRTLESLLSGLGPAGPFDMVYWTGDIPAHDVWHQTRQDQLRALTTVTALVRKFLGPVPVYPAVGNHESTPVNSFPPPFIEGNHSSRWLYEAMAKAWEPWLPAEALRTLRIGGFYALSPYPGLRLISLNMNFCSRENFWLLINSTDPAGQLQWLVGELQAAEDRGDKVHIIGHIPPGHCLKSWSWNYYRIVARYENTLAAQFFGHTHVDEFEVFYDEETLSRPLAVAFLAPSATTYIGLNPGYRVYQIDGNYSGSSHVVLDHETYILNLTQANIPGAIPHWQLLYRARETYGLPNTLPTAWHNLVYRMRGDMQLFQTFWFLYHKGHPPSEPCGTPCRLATLCAQLSARADSPALCRHLMPDGSLPEAQSLWPRP", "values": [{"measurement": "EC50", "setting": "[11]", "result": 930, "unit": "pM"}, {"measurement": "EC50", "setting": "[12]", "result": 0.299, "unit": "µg/mL"}]}
{"binder": "HIR Ab-LL-PPT1 fusion protein (31-amino acid linker) (antibody, human IgG1, human IgG3, kappa, Hetero-tetramer, MW 246 kDa; The ELISA used CHO-derived protein; also called HIR Ab-PPT1; HIRMAb-PPT1) heavy: not shown light: DIQMTQSPSSLSASLGERVSLTCRASQDIGGNLYWLQQGPDGTIKRLIYATSSLDSGVPKRFSGSRSGSDYSLTISSLESEDFVDYYCLQYSSSPWTFGGGTKMEIKRTVAAPSVFIFPPSDEQLKSGTASVVCLLNNFYPREAKVQWKVDNALQSGNSQESVTEQDSKDSTYSLSSTLTLSKADYEKHKVYACEVTHQGLSSPVTKSFNRGEC", "values": [{"measurement": "EC50", "setting": "[13]", "result": 380, "unit": "pM"}, {"measurement": "EC50", "setting": "[12]", "result": 0.094, "unit": "µg/mL"}]}
